Patent publication US20050130232A1, “Methods of screening for compounds that modulate hormone receptor activity” (Allergan, Inc., priority 2001, published 2005)

Experiments:
[1] = system: T1, Flag-RXRα (human retinoid X receptor α fused to the Flag epitope tag)
T1 sequence: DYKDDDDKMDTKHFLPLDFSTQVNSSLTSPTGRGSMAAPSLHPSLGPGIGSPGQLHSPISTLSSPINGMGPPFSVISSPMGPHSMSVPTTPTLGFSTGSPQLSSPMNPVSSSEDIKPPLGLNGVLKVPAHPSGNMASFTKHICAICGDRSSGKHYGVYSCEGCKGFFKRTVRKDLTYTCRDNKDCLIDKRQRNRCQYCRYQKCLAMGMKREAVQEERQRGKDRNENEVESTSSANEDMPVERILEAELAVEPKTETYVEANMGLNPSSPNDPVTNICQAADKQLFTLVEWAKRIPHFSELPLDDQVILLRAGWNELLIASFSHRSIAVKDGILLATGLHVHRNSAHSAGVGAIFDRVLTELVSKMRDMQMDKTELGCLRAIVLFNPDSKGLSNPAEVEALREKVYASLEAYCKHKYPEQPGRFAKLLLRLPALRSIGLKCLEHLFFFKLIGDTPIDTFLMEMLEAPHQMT

[2] = system: protein kinase A; conditions: specific PKA substrate; cited from earlier work
[3] = system: protein kinase A; assay: Km of synthetic peptide substrates for protein kinase A; assay type: biochemical
[4] = biological target: Flag-tagged PH-RXRα (Flag tag, pleckstrin homology domain of human insulin receptor substrate-1, human RXRα) (UniProt P35568)
[5] = biological target: protein kinase A activity endogenous to HEK 293 cells (co-immunoprecipitated with tagged RXRα); assay: cell-based or functional assay
[6] = biological target: protein kinase A activity endogenous to 3T3-L1 adipocytes; assay: cell-based or functional assay
[7] = system: protein kinase A activity associated with RXRα; assay: Protein kinase A activity in anti-Flag immunoprecipitates of PH-RXRα or RXRα transfected HEK 293 cells, synthetic peptide substrate; assay type: cell-based, human; conditions: PH-RXRα, ligand-treated cells, inhibitor added to kinase reaction, substrate LRRASLG
Description: 293 cells were transfected with PH-RXRα. Sample 1: 0.1% DMSO (10 minutes). […] Sample 3: 0.1% DMSO (30 minutes).
Sample 1: 0.1% DMSO (10 minutes). […] Sample 3: 0.1% DMSO (30 minutes). […] Sample 5: No immunoprecipitate.
Sample 1: 0.1% DMSO. […] Sample 3: 0.1% DMSO with PKA inhibitor. […] Sample 5: 0.1% DMSO.
Following immunoprecipitation with anti-Flag antibody, the synthetic PKA substrate, LRRASLG (SEQ ID NO: 59), was added to the immunoprecipitate along with γ-ATP.
HEK 293 were cultured and transfected essentially as described above. Immunoprecipitates were prepared using the anti-Flag antibody, M2, as described above. Assays for protein kinase A activity were performed as follows. Immunoprecipitated complexes were resuspended in 40 μl of Kinase Assay Buffer (30 mM Tris-HCl, pH 7.4 and 10 mM MgCl2). Kinase reactions were initiated by addition of 10 μl of 500 μM synthetic peptide LRRASLG (SEQ ID NO: 59) or […] (SEQ ID NO: 60) prepared by Upstate Biotechnology (Lake Placid, N.Y.) and addition of 50 μM [γ-^32P]ATP (10 μCi) to the immune-complexes. […]
Incorporated ^32P was separated from free label by applying the reaction mixture onto P81 phosphocellulose paper and subsequently washing the paper three times with 0.75% phosphoric acid and once with acetone. Protein kinase reaction samples were analyzed in a scintillation counter to determine the amount of ^32P-incorporation.

[8] = biological target: T2, RXRα phosphorylation by protein kinase A (Homo sapiens, UniProt P19793); assay: Phosphorylation of immunoprecipitated RXRα by purified PKA; assay type: biochemical; conditions: inhibitor added to kinase reaction
T2 construct: host or cells: HEK293
T2 sequence (P19793 1-462): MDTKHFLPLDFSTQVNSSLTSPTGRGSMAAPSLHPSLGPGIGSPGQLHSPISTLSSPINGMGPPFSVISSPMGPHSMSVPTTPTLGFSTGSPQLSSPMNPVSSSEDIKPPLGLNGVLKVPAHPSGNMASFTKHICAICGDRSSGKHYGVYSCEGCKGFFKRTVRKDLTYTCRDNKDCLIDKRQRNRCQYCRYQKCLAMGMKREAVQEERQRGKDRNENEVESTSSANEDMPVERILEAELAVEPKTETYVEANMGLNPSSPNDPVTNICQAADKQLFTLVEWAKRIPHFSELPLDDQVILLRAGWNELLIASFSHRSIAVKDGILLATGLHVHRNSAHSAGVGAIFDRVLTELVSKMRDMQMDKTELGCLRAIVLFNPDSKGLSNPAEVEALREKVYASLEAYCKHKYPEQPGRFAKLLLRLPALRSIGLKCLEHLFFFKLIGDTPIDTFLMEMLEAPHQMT
Description: Left panel: Cells were immunoprecipitated with anti-FLAG antibody, and the immunoprecipitates analyzed by SDS-PAGE and blotting with anti-PKA antibody. Right panel: Cells were immunoprecipitated with anti-PKA antibody, and the immunoprecipitates analyzed by SDS-PAGE and blotting with anti-FLAG antibody. B. Phosphorylation of RXRα by PKA. […] PKA I and PKC I indicate inhibitors of PKA and PKC, respectively.
RXRα-containing immunoprecipitates prepared with anti-Flag antibody were incubated with purified catalytically active PKA (Upstate Biotechnology) and […]; in addition, protein kinase A inhibitor or protein kinase C inhibitor was added to some reactions as indicated. The kinase reaction products were analyzed by SDS-PAGE.

## purified catalytically active PKA (Upstate Biotechnology)
[1]
  in vitro phosphorylation of immunoprecipitated RXRα by purified PKA (SDS-PAGE): RXRα was phosphorylated, and the extent of phosphorylation was increased by addition of RXRα ligand, AGN194204

## GRTGRRNSI [SEQ ID NO: 60, specific protein kinase A substrate]
[2]
  Km: 0.11 µM
[3]; relative to kemptide
  fold higher Vmax than kemptide: about 2 fold
[3]; relative to kemptide (SEQ ID NO: 59)
  fold lower Km than kemptide: approximately 40 fold

## protein kinase A activity endogenous to HEK 293 cells (co-immunoprecipitated with tagged RXRα)
[4]
  protein kinase A activity in anti-Flag immunoprecipitates (32P incorporation into LRRASLG): significantly more protein kinase A activity was detected in immunoprecipitates from cells treated with AGN194024 ligand than in immunoprecipitates treated with control vehicle
[1]
  protein kinase A activity in anti-Flag immunoprecipitates (32P incorporation into LRRASLG): protein kinase A activity associated with RXRα lacking a fused pleckstrin homology domain was significantly enhanced in cells treated with 10^-7 M AGN194204 as compared to control vehicle

## Flag-tagged PH-RXRα (Flag tag, pleckstrin homology domain of human insulin receptor substrate-1, human RXRα) (from UniProt P35568 12-115)
[5]
  protein kinase A activity in anti-FLAG immunoprecipitates (32P incorporation into …), AGN194204-treated against DMSO-treated cells: > 2 fold

## endogenous RXRα of untransfected 3T3-L1 adipocytes (from UniProt P28700 1-467) (receptor)
[6]
  PKA activity in anti-RXRα (D20) immunoprecipitates (32P incorporation into SEQ ID NO: 59), ligand-treated against vehicle-treated cells: 2 fold

## RFARKGALRGKNV
[7]
  inhibition of RXRα-associated PKA activity: not
[8]
  inhibition of RXRα phosphorylation by purified PKA: not
